Reference: US20180002431A1, “FAS AND DRs ARE NOVEL MOLECULAR TARGETS OF SENESCENT CELLS” (BioVentures, LLC, priority 2015, published 2018)

Tests used:
[1] = system: senescent WI-38 cells induced by IR (IR-SC); assay: Viable cell count, senescent WI-38 cells induced by IR; assay type: cell-based, human
Experimental: (§1) FIG. 2A, FIG. 2B, FIG. 2C, FIG. 2D, FIG. 2E, FIG. 2F, FIG. 2G, FIG. 2H, FIG. 2I, FIG. 2J, FIG. 2K, FIG. 2L, FIG. 2M and FIG. 2N depict graphs showing that FasAb and Trail selectively kill senescent cells by induction of apoptosis. (FIG. 2A, FIG. 2B, FIG. 2C, FIG. 2D) Non-senescent cells (NC) and senescent WI-38 cells induced by IR (IR-SC) were incubated with different concentrations of FasAb (Clone CH11, Cat #05-201, Millipore, Mass., USA) or Trail (Cat #310-04, Peprotech, N.J., USA) for 3 days to count number of viable cells. The data presented are means±SD of viable cells as a percent of control without FasAb or Trail treatment from 3 independent experiments. **, p<0.01; ***, p<0.001; and ****, p<0.0001, vs. without FasAb or Trail. (FIG. 2E, FIG. 2F) WI-38 NC and IR-SC were incubated with vehicle (Veh), FasAb (10 ng/ml) or Trail (12.5 ng/ml) for 3 days, and apoptosis in these cells was determined by Annexin V-FITC staining and flow cytometry. […] (FIG. 2G, FIG. 2H) NCs and IR-SCs were incubated with vehicle (Veh), FasAb (10 ng/ml) or Trail (12.5 ng/ml) for 3 days after the cells were preincubated with vehicle (Veh) or 10 μM Q-VD-OPh hydrate (QVD) for 2 hours, and apoptosis in these cells was determined by Annexin V-FITC staining and flow cytometry. […]

[2] = system: senescent WI-38 cells induced by IR (IR-SC); assay: Apoptosis by Annexin V-FITC staining and flow cytometry, WI-38 IR-SC; assay type: cell-based, human
Experimental: as §1, with “The data presented are means±SD of viable cells as a percent of control without FasAb or Trail treatment from 3 independent experiments. **, p<0.01; ***, p<0.001; and ****, p<0.0001, vs. without FasAb or Trail.” left out
WI-38 NC and IR-SC were incubated with vehicle (Veh), FasAb (10 ng/ml) or TRAIL (12.5 ng/ml) for 3 days, and apoptosis in these cells was determined by Annexin V-FITC staining and flow cytometry. […]

[3] = system: senescent IMR90 cells induced by IR (IR-SC); assay: Viable cell count, senescent IMR90 cells induced by IR; assay type: cell-based; settings: different concentrations, 3 days (FIG. 2K-2N)

Molecule: CC(C)[C@H](NC(=O)c1ccc2ccccc2n1)C(=O)N[C@@H](CC(=O)O)C(=O)COc1c(F)cccc1F [QVD, Q-VD-OPh hydrate, reference compound]
- effect of QVD on the viable cell reduction by FasAb and TRAIL ([1]; IR-SC, 10 μM QVD preincubated 2 hours, then FasAb 10 ng/ml or TRAIL 12.5 ng/ml for 3 days (FIG. 2I, 2J)): blocks the activity observed with FasAb and TRAIL
- effect of QVD on apoptosis induced by FasAb and TRAIL ([2]; 10 μM QVD preincubated 2 hours, then FasAb 10 ng/ml or TRAIL 12.5 ng/ml for 3 days (FIG. 2G, 2H)): blocked the ability of FasAb and TRAIL to induce apoptosis

B1: TRAIL: recombinant TNF-related apoptosis-inducing ligand, Cat #310-04, Peprotech (protein, UniProt P50591 1-281, looked up)
Tumor necrosis factor ligand …: MAMMEVQGGPSLGQTCVLIVIFTVLLQSLCVAVTYVYFTNELKQMQDKYSKSGIACFLKEDDSYWDPNDEESMNSPCWQVKWQLRQLVRKMILRTSEETISTVQEKQQNISPLVRERGPQRVAAHITGTRGRSNTLSSPNSKNEKALGRKINSWESSRSGHSFLSNLHLRNGELVIHEKGFYYIYSQTYFRFQEEIKENTKNDKQMVQYIYKYTSYPDPILLMKSARNSCWSKDAEYGLYSIYQGGIFELKENDRIFVSVTNEHLIDMDHEASFFGAFLVG
- number of viable cells ([1]; WI-38 IR-SC vs NC, different concentrations, 3 days (FIG. 2A-2D)): significantly reduced the number of viable cells relative to NC
- apoptosis (Annexin V-FITC+ cells) ([2]; WI-38 IR-SC, FasAb 10 ng/ml or TRAIL 12.5 ng/ml, 3 days, relative to untreated or non-senescent cells (FIG. 2E, 2F)): significantly increased
- number of viable cells (reported as apoptosis induction) [3]: induced apoptosis
